The values below come from US20160319032A1.

The target in test [1] is α4β1 integrin on J6.77 cells (UniProt P13612). The test is described as follows: cell-based or functional assay.
The target in test [2] is human αV on parental A375M cells (αVβ3 and αVβ5 integrins) (human) (UniProt P06756). Nature of the test: cell-based or functional assay.
Test [3] deals with human αVβ6 integrin on cells (human) (UniProt P06756). Nature of the test: FMAT, 1 ug/mL, HEK 293 cells stably overexpressing αVβ6.
The target of test [4] is cynomolgus β6 on transfected HEK-293 cells (cynomolgus). Nature of the test: FACS, transfected HEK-293 (parental: 0). On the technique in general: Flow cytometry measures light scatter and fluorescence of single cells or particles in a stream.
Test [5] has as its target cynomolgus αVβ6 on cells (cynomolgus). The test is described as follows: FACS, transfected HEK-293 (parental: 0).
Test [6] concerns the target mouse αVβ6 on cells (mouse) (UniProt P43406). The test is described as follows: FACS, transfected HEK-293 (parental: 0).
Test [7] deals with mouse αV on transfected HEK-293 cells (mouse) (UniProt P43406). Nature of the test: FACS, transfected HEK-293 (parental: 0).
In test [8] the target is mouse β6 on transfected HEK-293 cells (mouse) (UniProt Q9Z0T9). The test is described as follows: FACS, transfected HEK-293 (parental: 0).
Sequence of mouse β6 on transfected HEK-293 cells (mouse) (Q9Z0T9 22-787): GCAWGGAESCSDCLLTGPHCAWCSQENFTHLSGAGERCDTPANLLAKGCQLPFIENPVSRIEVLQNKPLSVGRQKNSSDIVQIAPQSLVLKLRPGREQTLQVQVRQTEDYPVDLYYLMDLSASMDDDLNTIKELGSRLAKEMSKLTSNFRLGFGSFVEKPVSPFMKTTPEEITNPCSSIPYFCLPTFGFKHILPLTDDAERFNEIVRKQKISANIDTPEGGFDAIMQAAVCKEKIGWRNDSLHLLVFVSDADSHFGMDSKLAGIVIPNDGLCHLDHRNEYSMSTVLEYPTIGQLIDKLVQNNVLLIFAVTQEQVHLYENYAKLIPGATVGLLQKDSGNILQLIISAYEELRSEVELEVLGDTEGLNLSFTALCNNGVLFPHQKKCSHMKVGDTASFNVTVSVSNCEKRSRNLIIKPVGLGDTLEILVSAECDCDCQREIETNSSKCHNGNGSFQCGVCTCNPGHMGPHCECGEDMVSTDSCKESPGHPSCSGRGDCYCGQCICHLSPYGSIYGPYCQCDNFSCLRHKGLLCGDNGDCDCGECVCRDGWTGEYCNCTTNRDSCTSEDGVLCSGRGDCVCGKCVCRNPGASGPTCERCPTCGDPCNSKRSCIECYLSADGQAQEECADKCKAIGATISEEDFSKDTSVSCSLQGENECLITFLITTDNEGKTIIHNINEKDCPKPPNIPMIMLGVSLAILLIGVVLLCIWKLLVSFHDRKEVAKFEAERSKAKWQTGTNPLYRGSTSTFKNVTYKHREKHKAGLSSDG
The target of test [9] is cynomolgus αV on transfected HEK-293 cells (cynomolgus). The test is described as follows: FACS, transfected HEK-293 (parental: 0).
The target of test [10] is human αV on parental A375M cells (αVβ3 and αVβ5 integrins) (human) (UniProt P06756). Nature of the test: FACS, 1 ug/ml, parental A375M cells, day 2.
In test [11] the target is cynomolgus αVβ6 on cells (cynomolgus). Nature of the test: FACS, 1 ug/ml, HEK-293 transfected with cynomolgus αV and β6, day 2.
The target in test [12] is human αV on parental A375M cells (αVβ3 and αVβ5 integrins) (human) (UniProt P06756). Nature of the test: FACS, 1 ug/ml, parental A375M cells, day 1.
Another test concerns the target soluble αVβ6 (human) (UniProt P06756). The test is described as follows: ELISA, 1 ug/mL on plate-coated soluble αVβ6.
Test [13] has as its target mouse αVβ6 on cells (mouse) (UniProt P43406). Nature of the test: FACS, K562 cells expressing mouse αVβ6 (parental K562: 15).
The target in test [14] is cynomolgus αVβ6 on cells (cynomolgus). Nature of the test: FACS, 1 ug/ml, HEK-293 transfected with cynomolgus αV and β6, day 1.
For test [15] the target is unchanged. Nature of the test: FACS, K562 cells expressing cynomolgus αVβ6 (parental K562: 15).
The target of test [16] is human αVβ6 integrin on cells (human) (UniProt P06756). Nature of the test: cell-based or functional assay.
Test [17] deals with α5β1 integrin on K562 cells (UniProt P08648). The test is described as follows: cell-based or functional assay.
Sequence of α5β1 integrin on K562 cells (P08648 42-1049, chain 1 of 2): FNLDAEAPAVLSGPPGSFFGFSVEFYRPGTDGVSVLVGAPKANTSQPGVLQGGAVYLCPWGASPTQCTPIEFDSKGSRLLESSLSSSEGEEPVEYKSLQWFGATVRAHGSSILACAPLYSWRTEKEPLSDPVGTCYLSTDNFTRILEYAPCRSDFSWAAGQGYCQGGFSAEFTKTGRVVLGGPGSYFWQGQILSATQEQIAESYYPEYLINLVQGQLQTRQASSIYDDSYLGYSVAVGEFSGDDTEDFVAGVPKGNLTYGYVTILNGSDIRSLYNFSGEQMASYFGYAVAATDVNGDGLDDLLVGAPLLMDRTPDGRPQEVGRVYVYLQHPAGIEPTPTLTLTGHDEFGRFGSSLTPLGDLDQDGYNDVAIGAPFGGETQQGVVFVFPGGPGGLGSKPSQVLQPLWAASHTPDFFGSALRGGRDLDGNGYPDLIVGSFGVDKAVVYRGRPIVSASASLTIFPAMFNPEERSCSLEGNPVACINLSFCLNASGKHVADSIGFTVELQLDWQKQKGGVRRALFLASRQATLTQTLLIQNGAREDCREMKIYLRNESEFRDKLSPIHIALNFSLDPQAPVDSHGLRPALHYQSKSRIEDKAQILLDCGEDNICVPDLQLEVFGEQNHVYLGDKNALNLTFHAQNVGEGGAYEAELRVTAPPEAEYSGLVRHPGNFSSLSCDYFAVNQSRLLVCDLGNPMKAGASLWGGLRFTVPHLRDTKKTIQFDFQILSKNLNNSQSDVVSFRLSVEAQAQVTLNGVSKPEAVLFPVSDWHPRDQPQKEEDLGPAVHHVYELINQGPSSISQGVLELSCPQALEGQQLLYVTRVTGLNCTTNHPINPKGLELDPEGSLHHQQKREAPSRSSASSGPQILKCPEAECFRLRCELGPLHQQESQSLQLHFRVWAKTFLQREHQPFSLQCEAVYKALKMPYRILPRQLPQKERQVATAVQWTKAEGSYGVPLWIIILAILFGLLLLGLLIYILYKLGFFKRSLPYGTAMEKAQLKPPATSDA
Sequence of α5β1 integrin on K562 cells (P05556 21-798, chain 2 of 2, further chain): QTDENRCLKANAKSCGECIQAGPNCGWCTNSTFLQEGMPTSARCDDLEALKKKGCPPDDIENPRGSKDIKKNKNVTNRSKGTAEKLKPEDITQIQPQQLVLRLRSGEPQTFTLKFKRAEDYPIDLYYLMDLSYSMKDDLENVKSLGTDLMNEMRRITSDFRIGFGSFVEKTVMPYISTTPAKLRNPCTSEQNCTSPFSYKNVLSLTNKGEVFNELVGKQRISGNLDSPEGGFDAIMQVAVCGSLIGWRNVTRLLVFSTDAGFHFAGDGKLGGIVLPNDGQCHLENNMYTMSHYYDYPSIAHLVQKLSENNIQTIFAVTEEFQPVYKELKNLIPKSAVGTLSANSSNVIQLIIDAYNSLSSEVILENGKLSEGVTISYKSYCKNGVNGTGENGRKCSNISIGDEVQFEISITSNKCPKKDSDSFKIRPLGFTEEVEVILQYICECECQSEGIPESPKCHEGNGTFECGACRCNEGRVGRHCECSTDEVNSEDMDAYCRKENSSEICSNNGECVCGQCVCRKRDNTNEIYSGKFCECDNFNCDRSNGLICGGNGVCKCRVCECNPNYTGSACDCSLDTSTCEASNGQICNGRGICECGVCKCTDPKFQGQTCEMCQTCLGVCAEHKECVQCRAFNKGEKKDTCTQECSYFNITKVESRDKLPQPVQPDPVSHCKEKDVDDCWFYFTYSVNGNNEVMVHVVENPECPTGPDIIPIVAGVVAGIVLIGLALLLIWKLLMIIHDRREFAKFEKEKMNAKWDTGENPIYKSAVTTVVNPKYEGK

Sequence of human αVβ6 integrin on cells (human) (P06756 31-1048, chain 1 of 2): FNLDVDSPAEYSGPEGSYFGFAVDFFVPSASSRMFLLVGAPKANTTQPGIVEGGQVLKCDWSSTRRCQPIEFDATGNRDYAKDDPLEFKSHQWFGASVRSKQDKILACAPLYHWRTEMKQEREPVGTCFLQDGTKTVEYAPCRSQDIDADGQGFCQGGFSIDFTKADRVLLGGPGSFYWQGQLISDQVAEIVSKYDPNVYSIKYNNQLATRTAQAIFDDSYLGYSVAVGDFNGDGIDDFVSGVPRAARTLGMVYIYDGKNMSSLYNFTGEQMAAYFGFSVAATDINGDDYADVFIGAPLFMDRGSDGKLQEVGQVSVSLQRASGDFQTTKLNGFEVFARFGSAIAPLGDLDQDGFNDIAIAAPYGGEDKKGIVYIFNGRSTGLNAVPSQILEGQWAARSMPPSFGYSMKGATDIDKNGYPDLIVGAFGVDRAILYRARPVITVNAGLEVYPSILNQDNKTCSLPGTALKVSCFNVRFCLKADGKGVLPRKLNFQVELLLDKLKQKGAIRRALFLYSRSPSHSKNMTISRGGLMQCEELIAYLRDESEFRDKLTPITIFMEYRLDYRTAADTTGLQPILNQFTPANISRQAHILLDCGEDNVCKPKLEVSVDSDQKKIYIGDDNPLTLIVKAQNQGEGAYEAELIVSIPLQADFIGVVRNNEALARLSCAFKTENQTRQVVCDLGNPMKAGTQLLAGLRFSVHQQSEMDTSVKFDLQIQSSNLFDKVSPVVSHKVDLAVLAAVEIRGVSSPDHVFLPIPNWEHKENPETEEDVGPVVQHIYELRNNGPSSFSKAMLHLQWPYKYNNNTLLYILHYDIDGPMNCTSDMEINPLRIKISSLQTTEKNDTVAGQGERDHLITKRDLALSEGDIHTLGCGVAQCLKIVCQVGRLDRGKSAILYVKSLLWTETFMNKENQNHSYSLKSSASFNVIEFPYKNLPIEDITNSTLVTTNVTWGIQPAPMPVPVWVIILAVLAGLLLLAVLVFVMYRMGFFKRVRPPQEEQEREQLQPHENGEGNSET
Sequence of human αVβ6 integrin on cells (human) (P18564 22-788, chain 2 of 2, further chain): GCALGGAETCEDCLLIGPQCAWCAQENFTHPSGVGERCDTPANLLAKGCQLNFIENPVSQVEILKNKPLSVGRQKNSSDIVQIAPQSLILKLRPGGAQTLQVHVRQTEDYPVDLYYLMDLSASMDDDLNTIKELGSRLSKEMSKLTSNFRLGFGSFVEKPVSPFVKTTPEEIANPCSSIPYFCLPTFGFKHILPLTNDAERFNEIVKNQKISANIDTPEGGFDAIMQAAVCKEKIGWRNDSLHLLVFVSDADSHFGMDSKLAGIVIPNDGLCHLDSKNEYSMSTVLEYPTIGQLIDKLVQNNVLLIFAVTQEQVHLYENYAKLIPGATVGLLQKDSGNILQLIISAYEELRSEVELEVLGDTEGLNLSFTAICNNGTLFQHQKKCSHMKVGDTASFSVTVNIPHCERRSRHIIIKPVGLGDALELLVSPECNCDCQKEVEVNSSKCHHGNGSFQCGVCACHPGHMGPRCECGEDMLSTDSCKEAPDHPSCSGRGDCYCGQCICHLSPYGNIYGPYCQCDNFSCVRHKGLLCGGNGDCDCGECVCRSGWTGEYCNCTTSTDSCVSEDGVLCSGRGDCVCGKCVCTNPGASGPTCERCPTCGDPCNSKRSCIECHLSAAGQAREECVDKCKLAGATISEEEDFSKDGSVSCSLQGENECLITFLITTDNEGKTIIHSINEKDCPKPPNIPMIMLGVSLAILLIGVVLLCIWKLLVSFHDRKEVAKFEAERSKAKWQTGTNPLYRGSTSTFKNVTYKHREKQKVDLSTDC
Sequence of human αV on parental A375M cells (αVβ3 and αVβ5 integrins) (human) (P06756 31-1048 A375M, form in doubt): as the sequence (P06756 31-1048, chain 1 of 2) above, with A345M counted along it

Human IgG2 (antibody): the Percent Inhibition of J6.77 adhesion to CS-1 peptide, 5 ug/ml in test [1] was -9%.
For the substance Human IgG1 (antibody), the Percent Inhibition of J6.77 adhesion to CS-1 peptide, 5 ug/ml in [1] was -6%.
As for Mouse IgG Control (antibody), in [2], the Percent Inhibition of A375M adhesion to osteopontin peptide, 5 ug/ml was 5%.
With “murine anti-αVβ6 antibody 2077z (Cat#MAB2077z, Chemicon)”, the FMAT Count in test [3] is 67. The FMAT FL1 in test [3] was 659. Besides, the FMAT FL1XCount in test [3] is 44200. In addition, the percent of cells shifted in [4] was 5%; in test [5], 20%; in test [6], 45%; in test [7], 1%; in test [8] it was 11%; in [9] it was 0%. Further, the % Cells Shifted in test [10] stood at 5%; in [11], 11%; in test [12] it was 30%; in test [14], 42%. In addition, the GeoMean came to 15.4 in [10], 28.1 in test [11], 2.03 in test [12] and 55.5 in test [14]. In addition, the ELISA OD with soluble αVβ6 (human) worked out at 6 OD. The Geometric Mean Shift (arbitrary units) amounted to 122 in test [13] and 84 in test [15]. For the same substance, in [16], the Estimated IC50, adhesion assay, n = 1 was 0.226 µg/mL. The Estimated IC50, adhesion assay, n = 2 in [16] was 0.185 µg/mL. Further, the Estimated IC50, adhesion assay, n = 3 in [16] was 0.286 µg/mL.
In the case of Human IgG Isotype Control (antibody), in [17], the % Inhibition of K562 adhesion to fibronectin was -12% and the Percent Inhibition of K562 adhesion to FN9-10, 5 ug/ml came to 11%. Besides, in test [2], the Percent Inhibition of A375M adhesion to osteopontin peptide, 5 ug/ml amounted to 3%.
